# Laboratory results as given in patent publication US10080774B2, “Oncolytic adenovirus armed with therapeutic genes” (priority 2002, dated 2018).
# Where no end group is shown, it is not given here. FAM = 5(6)-carboxyfluorescein label; Ahx = NCCCCCC(=O)O
# B1: rhAng-1: recombinant angiopoietin-1 protein (protein)
# chain: SNQRRSPENSGRRYNRIQHGQCAYTFILPEHDGNCRESTTDQYNTNALQRDAPHVEPDFSSQKLQHLEHVMENYTQWLQKLENYIVENMKSEMAQIQQNAVQNHTATMLEIGTSLLSQTAEQTRKLTDVETQVLNQTSRLEIQLLENSLSTYKLEKQLLQQTNEILKIHEKNSLLEHKILEMEGKHKEELDTLKEEKENLQGLVTRQTYIIQELEKQLNRATTNNSVLQKQQLELMDTVHNLVNLCTKEGVLLKGGKREEEKPFRDCADVYQAGFNKSGIYTIYINNMPEPKKVFCNMDVNGGGWTVIQHREDGSLDFQRGWKEYKMGFGNPSGEYWLGNEFIFAITSQRQYMLRIELMDWEGNRAYSQYDRFHIGNEKQNYRLYLKGHTGTAGKQSSLILHGADFSTKDADNDNCMCKCALMLTGGWWFDACGPSNLNGMFYTAGQNHGKLNGIKWHYFKGPSYSLRSTTMMIRPLDF
# How the values were obtained:
# P-MAPK = P-MAPK inhibition; type: cell-based, human; details: U-87 MG cells
# Source text: Although the correlation between MAPK activity and Ad-E1A-COX ability to replicate has been shown (Ahmed et al., 2003), the inventors have designed studies to assess the ability of retargeted constructs to replicate in glioma cells with high or low MAPK activity. To characterize the effects of the insertion of the 3′ UTR on E1A expression, inhibitors of kinases signaling, PD98059 (p42/p44 MAPK inhibitor), and for specificity testing: SB203580 (p38 MAPK inhibitor) and LY294002 (PI3K inhibitor) will be used. The inventors will use an isogenic U-87 MG system, containing a stably integrated, IPTG-inducible activated Ha-rasVal12 cDNA (Sheng et al., 2000). This model system is based in cells that only differ in the expression of an activated variant of the Hras oncogene, Ha-rasVal12 (Sheng et al., 2000). The will assess whether PTGS2 3′ UTR-mediated Ad-E1A-COX-Tie2 depends on the P-MAPK pathway. […] The replication capability of Ad-E1A-COX-Tie2 in U87-MG cells untreated and treated with PD98059 (and the control inhibitors) will be assessed. The inventors contemplate that inhibition of P-MAPK activity by PD98059 will greatly reduce the ability Ad-E1A-COX-Tie2 to replicate even with high expression of Ha-rasVal12 induced by IPTG in the isogenic U-87 MG. […]
# Tie2 [1] = target: T1, Tie2 (Homo sapiens, UniProt Q02763); experiment: Binding of T4 peptide to Tie2; set-up: expressed in transfected cells; host or cells: U-251 MG stably transfected with Tie-2 cDNA (parental U-251 MG is Tie2-negative); also A172 cells with endogenous Tie2; details: U-251 MG isogenic system and A172
# Source text: Testing the binding of the proposed Tie2-ligand, T4, the inventors synthesized the peptide linked to FAM signal that was suitable for flow cytometric detection. Peptide was synthesized by automatic solid phase chemistry using Fmoc strategy. The N-terminal aminohexanoic acid was labeled by coupling 5(6)-carboxyfluorescein. Peptides were purified to >98% purity by reverse phase HPLC.
# Tie2 [2] = target: T1, Tie2; set-up: expressed in transfected cells; host or cells: U-251 MG stably transfected with Tie-2 cDNA (parental U-251 MG is Tie2-negative); also A172 cells with endogenous Tie2; details: Tournaire et al. (2004); cited from earlier work
# [3] = tested on: ERK1 (p44MAPK) and ERK2 (p42MAPK); experiment: ERK1/2 (p42/p44 MAPK) phosphorylation, Western blot; type: cell-based, human
# Procedure: HUVEC and U-87 MG cells were mock-, AdCMV- or AdAng-2-Infected. 24 hours later they were overnights serum-starved, and then stimulated with […] for 10 min. Cell lysates were collected and analyzed by Western blotting for expression of phospho- and total p42/p44 MAPK. Ang-1 increased ERK 1/2 phosphorylation what was inhibited by the viral-transduced Ang-2.
# The Ang-2/Ang-1/Tie2 system has been studied in endothelial cells, and different pathways have been reported as involved in the cascade signaling; these include phosphotidylinositol […] (PI3-K), focal adhesion kinase, Raf/Ras/mitogen-activated protein kinase (MAPK), and Dok-R/Dok-2/Nck/Pak (Yoon et al., 2003). […] These cascades modulate protein synthesis and/or transcriptional activation. […] To measure MAPK activity, the inventors measured the degree of phosphorylation of two MAPKs, ERK1 (p44MAPK) and ERK2 (p42MAPK).
# The Ang-2/Ang1/Tie2 system has been studied in endothelial cells, and different pathways have been reported as involved in the cascade signaling. […] MAPK activity was measured by the degree of phosphorylation of two MAPKs, ERK1 (p44^MAPK) and ERK2 (p42^MAPK).
# Tie2 [4] = target: T1, Tie2; experiment: Tie2 phosphorylation, immunoprecipitation; type: cell-based; details: U-87 MG, 500 ng/ml, 10 min
# Procedure: To explore the regulation of Tie2 signaling by Angs in U-87 MG cells, Tie2 was immunoprecipitated from membrane fractions of U-87 MG cells treated with rAng1 (500 ng/ml) for 10 min, and phosphorylation of Tie2 was addressed using anti-phosphotyrosine antibody.
# Ras = Ras activity (Ras-GTP); type: cell-based, human; details: U-87 MG
# Procedure: In addition, the inventors have obtained data regarding the upstream effector of p42/p44 MAPK, Ras, by analyzing Ras activity in Ang1-estimulated U-87 MG cells. Ras activity, which detects active GTP-bound Ras, was performed by immunoprecipitation of Ras-Raf complexes (contains only active Ras), and consequent western blotting detection of Ras-GTP molecule.
# Akt = Akt phosphorylation; type: cell-based, human; details: U-87 MG, 100-500 ng/ml
# Source text: Consistant with previous reports, Ang-1/Tie signaling in endothelial cells in vitro involves PI3K/Akt activation (DeBusk et al., 2004; Papapetropoulos et al., 2000).
# Dok-R = experiment: Tie2 association with Dok-R; type: cell-based, human; details: stable transfected Tie2 U-251 MG
# Source text: Tie2 can also recruit additional signaling molecules that participate in cellular pathways that affect the shape and migratory properties of cells. In this regard, the Tie2-associated docking protein Dok-R can potentiate NCK-dependent endothelial cell migration in response to Ang1 (Master et al., 2001; Jones et al., 2003).
# U-87 MG cells [5] = experiment: Chemotactic migration assay (Transwell); type: cell-based, human; details: 24 h
# Procedure: Witzenbichler et al. (1998) have reported the chemotactic properties of Ang1 for Tie2-endothelial cells. A chemotaxis assay was performed in the presence or absence of Ang1. Incubation with various concentrations of Ang1 enhanced chemotactic migration of U-87 MG cells. Migration assay was performed as described previously (Gomez-Manzano, 2003). Briefly, the lower surface of the filter was coated with gelatin. 600 μl of DMEM/F-12 (1:1) containing rAng1 and 0.1% BSA was added into lower compartment of the Transwell chamber, and 100 μl of cell suspension was added in the upper chamber. After 24 h of incubation, the filters were fixed, stained with H/E, and the cells on the lower surface of the filters were counted at 400× with Zeiss microscope. Assays were performed in triplicate. […] To distinguish between chemotactic and chemokinetics effect of Ang1 on U-87 MG, an analysis was performed where similar doses of Ang1 were present above and below the filter. Significant migration was observed only when a concentration gradient of Ang1 was established, a finding typical of factors inducing chemotaxis.
# U-87 MG cells [6] = experiment: Glioma cell adhesion assay; type: cell-based, human; details: 1 hr
# Source text: It was reported that Ang1 promotes adhesion of Tie2+ hematopoietic stem cells to fibronectin and collagen and also promotes the interaction of endothelial cells with surrounding mesenchymal cells and the extracellular matrix (Davis et al., 1996; Suri et al., 1996; Arai et al., 2004). Therefore, the inventors analyzed the effects of Ang1/Tie2 signalling on glioma adhesion. Briefly, 96-well dishes were coated for 2 hr at room temperature (RT) with rAng1 diluted in PBS. Wells were then blocked for 30 min at RT with 0.5% heat-inactivated BSA in PBS (80° C. for 10 min) and washed three times with PBS before adding cells. U-87 MG cells were harvested and resuspended. 30,000 cells were seeded/well, and the plate was incubated at 37° C. for 1 hr. Nonadherent cells were removed and attached cells were fixed in 4% paraformaldehyde and stained with 0.2% crystal violet. Cells were solubilized in DMSO and absorbance of each well was read at 570 nm. […] Similar results were obtained when Tie2− and Tie2+U-251 MG were used. In addition, the possibility of Ang1-induced adhesion has been assessed. For that study, the wells were coated with several ECM and then, U-87 MG cells that were previously stimulated with Ang1 (BSA control), were plated on those wells. […]
# T1 sequence (Q02763 23-1124): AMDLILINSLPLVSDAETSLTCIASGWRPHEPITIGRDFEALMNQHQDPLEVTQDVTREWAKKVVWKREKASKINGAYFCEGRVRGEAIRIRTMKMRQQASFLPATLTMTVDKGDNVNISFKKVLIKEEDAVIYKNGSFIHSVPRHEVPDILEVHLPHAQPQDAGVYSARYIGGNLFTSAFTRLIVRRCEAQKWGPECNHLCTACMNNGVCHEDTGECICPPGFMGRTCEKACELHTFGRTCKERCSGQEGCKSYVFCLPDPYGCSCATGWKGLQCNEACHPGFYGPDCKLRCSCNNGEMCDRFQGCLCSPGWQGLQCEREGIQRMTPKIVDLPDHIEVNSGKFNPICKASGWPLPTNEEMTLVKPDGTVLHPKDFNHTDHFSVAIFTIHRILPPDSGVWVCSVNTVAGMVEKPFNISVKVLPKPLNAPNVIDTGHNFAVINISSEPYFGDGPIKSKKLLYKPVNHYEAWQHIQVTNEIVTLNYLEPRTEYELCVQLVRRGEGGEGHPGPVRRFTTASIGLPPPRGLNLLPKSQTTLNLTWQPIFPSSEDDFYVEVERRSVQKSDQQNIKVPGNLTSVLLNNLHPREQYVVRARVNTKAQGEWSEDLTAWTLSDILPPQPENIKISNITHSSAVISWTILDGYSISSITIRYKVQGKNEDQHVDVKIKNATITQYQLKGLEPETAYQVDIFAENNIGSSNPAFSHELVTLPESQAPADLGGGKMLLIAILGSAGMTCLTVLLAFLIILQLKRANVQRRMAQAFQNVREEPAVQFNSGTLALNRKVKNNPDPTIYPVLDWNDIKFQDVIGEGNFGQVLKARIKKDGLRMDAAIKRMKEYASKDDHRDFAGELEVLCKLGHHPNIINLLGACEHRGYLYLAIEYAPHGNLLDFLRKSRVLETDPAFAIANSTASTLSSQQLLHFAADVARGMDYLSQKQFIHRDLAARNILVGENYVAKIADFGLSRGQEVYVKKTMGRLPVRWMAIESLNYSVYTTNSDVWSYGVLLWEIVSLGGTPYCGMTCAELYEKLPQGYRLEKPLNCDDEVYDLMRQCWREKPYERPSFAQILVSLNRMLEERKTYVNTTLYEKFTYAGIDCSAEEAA
molecule,measurement,setting,value
COc1cccc(-c2cc(=O)c3ccccc3o2)c1N [PD98059],P-MAPK expression,P-MAPK,effectively inhibited P-MAPK expression
NLLMAAS ({FAM-Ahx}-NLLMAAS; also: 5(6)-carboxyfluorescein label (site not given here)) [T4],binding to cell membrane by flow cytometry,Tie2 [1],binds preferentially to the membrane of cells overexpressing Tie2
same,binding of Ang1 and Ang-2 to the Tie2 receptor,Tie2 [2],completely abolished
B1,ERK1/2 phosphorylation,"[3]; HU-VEC-C endothelial cells, 100 ng/ml",increased ERK1/2 phosphorylation
same,ERK1/2 phosphorylation,[3]; U-87 MG,increased ERK1/2 phosphorylation
same,Tie2 phosphorylation,Tie2 [4],induced phosphorylation of Tie2
same,Ras activity,Ras,Ras activity increases
same,Akt phosphorylation,Akt,did not modify the pattern of phosphorylation of the Akt molecule
same,Tie2 association with Dok-R,Dok-R,results in Tie2 association with Dok-R protein
same,chemotactic migration,U-87 MG cells [5],significant increase in directed migration
same,adhesion of U-87 cells to Ang1-coated wells,U-87 MG cells [6],increasing adhesion properties
